This note sets out measurements from publication PMC3390373.

This assay has as its target FLAG-tagged C-terminally truncated RPS0A (residues 1–197) (S. cerevisiae) (UniProt P32905). Put plainly: co-IP; WCE of H2880 wt cells overexpressing wt or C-terminally truncated RPS0A-FLAG; anti-FLAG M2 affinity matrix, 60 min, 4°C, buffer A200T (200 mM KCl, 20 mM Tris pH 8, 5 mM Mg acetate, 1 mM DTT, 0.2% Triton X-100); whole 40S subunits with their associated eIFs are recovered through the tagged RPS0A; Western blot, normalised to ASC1 (Figure 5B).
UniProt P32905, sequence (P32905 1-197): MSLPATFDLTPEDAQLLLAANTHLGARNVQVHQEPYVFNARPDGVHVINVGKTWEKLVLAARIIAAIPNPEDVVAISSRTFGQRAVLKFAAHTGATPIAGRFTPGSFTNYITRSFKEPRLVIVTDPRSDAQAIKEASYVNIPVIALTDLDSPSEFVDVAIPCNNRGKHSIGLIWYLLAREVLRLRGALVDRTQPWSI

Regarding “eIF2 (from UniProt P32481 1-527) (complex)”, the percent reduction of the co-purified amount against wt RPS0A-FLAG was 70%.
